Assay results from paper PMC9197780.

Tests used:
Experiment in all cases: SPR
ADI-56046 (human) = molecular target: ADI-56046 (human)
P2B-2F6 (human) = molecular target: P2B-2F6 (human)
B38 (human) = molecular target: B38 (human)
C105 (human) = molecular target: C105 (human)
CB6 (human) = molecular target: CB6 (human)
P17 (human) = molecular target: P17 (human)

With “SARS-CoV-2 Omicron BA.1.1 RBD protein with His-tag, spike residues 319-541 (from UniProt P0DTC2 319-541) (domain or fragment)” the Kd (ADI-56046 (human)) was 1500 nM.
For “SARS-CoV-2 Omicron BA.2 RBD protein with His-tag, spike residues 319-541 (from UniProt P0DTC2 319-541) (domain or fragment)”, the Kd (P2B-2F6 (human)) was 5.1 µM.
With “SARS-CoV-2 Omicron BA.3 RBD protein with His-tag, spike residues 319-541 (from UniProt P0DTC2 319-541) (domain or fragment)” the Kd (B38 (human)) was greater than 500 nM, the Kd (C105 (human)) was greater than 500 nM and the Kd (CB6 (human)) was greater than 500 nM. For the same substance, the Kd (P17 (human)) was 3.5 µM and the Kd (ADI-56046 (human)) was 18000 nM.
In the case of “SARS-CoV-2 Omicron BA.1 RBD protein with His-tag, spike residues 319-541 (from UniProt P0DTC2 319-541) (domain or fragment)”, the Kd (ADI-56046 (human)) is reported as 2300 nM.
